In publication PMC4150762, “The DEAD-box helicase Ded1 from yeast is an mRNP cap-associated protein that shuttles between the cytoplasm and nucleus” (Nucleic Acids Research, 2014):

T1: GST-NAB2-HIS6 (S. cerevisiae, UniProt P32505 1-525)
T1 construct: source: E. coli, purified on nickel-agarose
T1 sequence (looked up): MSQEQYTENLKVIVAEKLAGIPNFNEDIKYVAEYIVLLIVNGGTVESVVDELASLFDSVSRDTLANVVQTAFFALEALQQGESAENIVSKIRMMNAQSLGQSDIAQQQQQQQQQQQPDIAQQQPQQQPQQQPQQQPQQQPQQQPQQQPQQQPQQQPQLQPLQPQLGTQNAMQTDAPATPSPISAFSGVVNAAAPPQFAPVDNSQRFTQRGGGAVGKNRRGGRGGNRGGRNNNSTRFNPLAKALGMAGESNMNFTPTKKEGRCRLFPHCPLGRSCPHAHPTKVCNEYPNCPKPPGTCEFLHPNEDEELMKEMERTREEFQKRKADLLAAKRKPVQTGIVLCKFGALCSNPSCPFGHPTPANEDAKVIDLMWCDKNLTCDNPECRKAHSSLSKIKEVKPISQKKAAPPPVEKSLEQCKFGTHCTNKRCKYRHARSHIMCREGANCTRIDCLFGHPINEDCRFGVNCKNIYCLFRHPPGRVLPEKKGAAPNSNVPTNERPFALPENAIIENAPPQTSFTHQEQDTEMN


Key:
[1] = biological target: T1, GST-NAB2-HIS6; experiment: pull-down; 7-methyl-GTP Sepharose beads loaded with 5 μg purified eIF4E or Cbp20, 5 μg of the purified proteins added with 50 U RNase I, 90 min on ice, TpB buffer (20 mM HEPES pH 7.9, 100 mM KCl, 2 mM MgCl2, 2 mM DTT), eluted with 1 mM 7-methyl-GTP; Coomassie-stained SDS PAGE; conditions: both partners purified
[2] = biological target: T2, Ded1-His6 (S. cerevisiae, UniProt P06634 1-604); experiment: cell-based or functional assay
[3] = biological target: T2, Ded1-His6; experiment: pull-down; Ded1 bound to protein A Sepharose beads crosslinked to IgG against Ded1, incubated with single purified proteins, washed, eluted; Coomassie-stained SDS PAGE, western blot for Pab1 and Cbp80; same results with or without RNase I or AMP-PNP; conditions: both partners purified

T2 sequence (P06634 whole entry): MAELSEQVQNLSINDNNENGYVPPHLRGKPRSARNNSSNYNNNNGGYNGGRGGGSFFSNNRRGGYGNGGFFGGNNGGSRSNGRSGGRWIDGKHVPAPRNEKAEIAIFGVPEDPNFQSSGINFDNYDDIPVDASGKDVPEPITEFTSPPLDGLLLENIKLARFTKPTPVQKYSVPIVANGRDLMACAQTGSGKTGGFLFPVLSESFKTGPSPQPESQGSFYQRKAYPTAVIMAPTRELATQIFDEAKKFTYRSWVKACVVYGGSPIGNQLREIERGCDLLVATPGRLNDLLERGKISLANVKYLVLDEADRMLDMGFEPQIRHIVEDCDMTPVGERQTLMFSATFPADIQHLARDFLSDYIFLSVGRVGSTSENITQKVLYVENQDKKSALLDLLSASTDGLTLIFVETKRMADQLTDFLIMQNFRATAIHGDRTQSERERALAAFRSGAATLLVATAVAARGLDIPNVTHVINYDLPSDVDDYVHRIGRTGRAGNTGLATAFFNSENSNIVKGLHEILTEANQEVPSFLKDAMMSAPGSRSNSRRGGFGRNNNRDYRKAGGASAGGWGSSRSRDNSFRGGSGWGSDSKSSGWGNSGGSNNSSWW

Binder	binding result [1]	RNA-dependent ATPase activity, % Ded1 [2]	binding result [3]
His6-Cbp20 (natural protein, S. cerevisiae, UniProt Q08920 1-208, looked up, Cbp20 of S. cerevisiae subcloned from pRSETC20 into the NdeI-BamHI sites of pET19b; Printed name His6-Cbp20; also called Cpb20; source: E. coli (pET19b), purified on nickel-agarose) MSLEEFDEVKYDHSTKRLDTPSRYLLRKARRNPNGLQELRESMKSSTIYVGNLSFYTSEEQIYELFSKCGTIKRIIMGLDRFKFTPCGFCFIIYSCPDEALNALKYLSDTKLDEKTITIDLDPGFEDGRQFGRGKSGGQVSDELRFDFDASRGGFAIPFAERVGVPHSRFDNSSSQSNTNNYIPPPDAMGTFRPGFDEEREDDNYVPQ	binds	97%	–
eIF4G-His6 fragment 387–952 (domain or fragment, S. cerevisiae, UniProt P39935 387-952, looked up, Not among the constructs of the methods) AGTKIGLEAEIETTTDETDDGTNTVSHILNVLKDATPIEDVFSFNYPEGIEGPDIKYKKEHVKYTYGPTFLLQFKDKLNVKADAEWVQSTASKIVIPPGMGRGNRSRDSGRFGNNSSRGHDFRNTSVRNMDDRANSRTSSKRRSKRMNDDRRSNRSYTSRRDRERGSYRNEEKREDDKPKEEVAPLVPSANRWVPKFKSKKTEKKLAPDGKTELLDKDEVERKMKSLLNKLTLEMFDAISSEILAIANISVWETNGETLKAVIEQIFLKACDEPHWSSMYAQLCGKVVKELNPDITDETNEGKTGPKLVLHYLVARCHAEFDKGWTDKLPTNEDGTPLEPEMMSEEYYAAASAKRRGLGLVRFIGFLYRLNLLTGKMMFECFRRLMKDLTDSPSEETLESVVELLNTVGEQFETDSFRTGQATLEGSQLLDSLFGILDNIIQTAKISSRIKFKLIDIKELRHDKNWNSDKKDNGPKTIQQIHEEEERQRQLKNNSRSNSRRTNNSSNRHSFRRDAPPASKDSFITTRTYSQRNSQRAPPPKEEPAAPTSTATNMFSALMGESDDEE	–	–	binds
